Biological target: the molecule itself
Experiment: SDS-PAGE; purified hE2 on an SDS-PAGE gel; additional band of ~25 kDa

B1: human Ubiquitin-conjugating enzyme UBE2D1 with point mutations S22R, C85K and D87S, hydrogenated (enzyme)
chain: not shown
notes: Ubiquitin-conjugating enzyme UBE2D1, human, with S22R, C85K and D87S; In the SAS experiment (a1) K85 of this chain is joined by an isopeptide bond to G76 of dUb; also called hE2; not shown: His6, N-terminal, cleaved
  binding result: binds
